Measured values taken from patent US20250361544A1, “TYPE III-D CRISPR-CAS SYSTEM AND USES THEREOF” (BOARD OF REGENTS, THE UNIVERSITY OF TEXAS SYSTEM, published 2025).
Values belong to the binder of their own block, whether it stands above or below them.

B1: Cas7-Cas5-Cas11 fusion subunit of the Synechocystis sp. PCC 6803 Type III-Dv complex (other)
chain: MRGIEITITMQSDWHVGTGMGRGELDSVVQRDGDNLPYIPGKTLTGILRDSCEQVALGLDNGQTRGLWHGWINFIFGDQPALAQGAIEPEPRPALIAIGSAHLDPKLKAAFQGKKQLQEAIAFMKPGVAIDAITGTAKKDFLRFEEVVRLGAKLTAEVELNLPDNLSETNKKVIAGILASGAKLTERLGGKRRRGNGRCELKFSGYSDQQIQWLKDNYQSVDQPPKYQQNKLQSAGDNPEQQPPWHIIPLTIKTLSPVVLPARTVGNVVECLDYIPGRYLLGYIHKTLGEYFDVSQAIAAGDLIITNATIKIDGKAGRATPFCLFGEKLDGGLGKGKGVYNRFQESEPDGIQLKGERGGYVGQFEQEQRNLPNTGKINSELFTHNTIQDDVQRPTSDVGGVYSYEAIIAGQTFVAELRLPDSLVKQITSKNKNWQAQLKATIRIGQSKKDQYGKIEVTSGNSADLPKPTGNNKTLSIWFLSDILLRGDRLNFNATPDDLKKYLENALDIKLKERSDNDLICIALRSQRTESWQVRWGLPRPSLVGWQAGSCLIYDIESGTVNAEKLQELMITGIGDRCTEGYGQIGFNDPLLSASLGKLTAKPKASNNQSQNSQSNPLPTNHPTQDYARLIEKAAWREAIQNKALALASSRAKREEILGIKIMGKDSQPTMTQLGGFRSVLKRLHSRNNRDIVTGYLTALEQVSNRKEKWSNTSQGLTKIRNLVTQENLIWNHLDIDFSPLTITQNGVNQLKSELWAEAVRTLVDAIIRGHKRDLEKAQENESNQQSQGAA
notes: Untagged, co-expressed from pPF2434 in E. coli; one copy in the complex; also called Cas7-5-11; Cas5-Cas7-Cas11

Experiments:
[1] = target: Type III-Dv effector complex (Cas10, Cas7-Cas5-Cas11, Cas7-2x, Csx19, Cas7-insertion) (Synechocystis sp. PCC 6803); experiment: structure; cryo-EM 2.5 A binary complex with 37-nt crRNA; conditions: tags: N-terminal His6-TEV on Cas10
Procedure: (§1) Fully assembled Type III-D binary complex was diluted to a concentration of 0.3 mg/ml in SEC buffer before 2.5 μl of sample was added to a quantifoil 1.2/1.3 grid that was glow discharged for 1 minute. Sample was applied to the grid in an FEI Vitrobot MarkIV kept at 100% humidity and 4° C. before blotting for 5.5 seconds with a force of 0. For the ssRNA target-bound complex, non-self ssRNA was mixed with the binary complex with a 2:1 molar ratio of RNA:Binary complex in SEC buffer to a final protein concentration of 0.3 mg/mL. Grids of the target-bound complex were frozen identical to that of the binary complex. Both grids were loaded to an FEI Titan Krios (Sauer Structural Biology Lab, University of Texas at Austin) operating at 300 kV. Images were taken at a pixel size of 0.81 Å/pixel with a dose rate of 10.6 e⁻/pixel/s for 5 seconds using a Gatan K3 direct electron detector, giving a final dosage of 80.5 e⁻/Å². Data collection was automated using SerialEM using a defocus range of −1.2 to −2.2 μm.
(§2) To delineate the architecture of this Type III-Dv effector, we used cryo-EM to determine a 2.5-Å resolution structure of the complex containing the nt crRNA (FIG. 1e,f, FIG. 8). To gain preliminary insights, we generated initial models of each subunit using Alphafold 2. […]

[2] = target: T1, Cas7-Cas7 fusion subunit of the Synechocystis sp. PCC 6803 Type III-Dv complex (Synechocystis sp. PCC 6803); experiment: cryo-EM structure of the binary complex, 2.5 Å
T1 construct: Untagged, co-expressed from pPF2434 in E. coli; one copy in the complex; also called Cas7-2x; Cas7_2x
T1 chain: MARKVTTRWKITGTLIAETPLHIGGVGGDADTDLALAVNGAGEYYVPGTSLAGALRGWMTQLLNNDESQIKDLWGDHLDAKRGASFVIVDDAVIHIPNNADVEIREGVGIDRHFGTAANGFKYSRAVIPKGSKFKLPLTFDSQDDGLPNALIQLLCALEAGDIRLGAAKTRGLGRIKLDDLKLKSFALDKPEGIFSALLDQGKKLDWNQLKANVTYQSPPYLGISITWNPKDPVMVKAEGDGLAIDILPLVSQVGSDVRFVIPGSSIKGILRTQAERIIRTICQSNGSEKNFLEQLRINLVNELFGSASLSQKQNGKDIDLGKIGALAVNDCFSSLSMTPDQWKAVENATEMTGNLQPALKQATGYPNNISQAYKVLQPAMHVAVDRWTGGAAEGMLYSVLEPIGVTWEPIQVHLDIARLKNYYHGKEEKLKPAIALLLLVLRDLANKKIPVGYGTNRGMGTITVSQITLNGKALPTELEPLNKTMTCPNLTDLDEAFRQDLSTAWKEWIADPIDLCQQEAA
Procedure: as §1, §2

[3] = target: T2, Cas10 subunit of the Synechocystis sp. PCC 6803 Type III-Dv CRISPR-Cas complex, with N-terminal His6 tag and … (Synechocystis sp. PCC 6803); experiment: cryo-EM structure (summary of Example 1)
T2 construct: Whole gene amplified from Synechocystis genomic DNA and co-expressed in E. coli from pPF2434; The complex also holds a 37-nt crRNA; also called His6-TEV-Cas10; N-His6-tagged Cas10; not shown: TEV cleavage was inefficient, so
T2 chain: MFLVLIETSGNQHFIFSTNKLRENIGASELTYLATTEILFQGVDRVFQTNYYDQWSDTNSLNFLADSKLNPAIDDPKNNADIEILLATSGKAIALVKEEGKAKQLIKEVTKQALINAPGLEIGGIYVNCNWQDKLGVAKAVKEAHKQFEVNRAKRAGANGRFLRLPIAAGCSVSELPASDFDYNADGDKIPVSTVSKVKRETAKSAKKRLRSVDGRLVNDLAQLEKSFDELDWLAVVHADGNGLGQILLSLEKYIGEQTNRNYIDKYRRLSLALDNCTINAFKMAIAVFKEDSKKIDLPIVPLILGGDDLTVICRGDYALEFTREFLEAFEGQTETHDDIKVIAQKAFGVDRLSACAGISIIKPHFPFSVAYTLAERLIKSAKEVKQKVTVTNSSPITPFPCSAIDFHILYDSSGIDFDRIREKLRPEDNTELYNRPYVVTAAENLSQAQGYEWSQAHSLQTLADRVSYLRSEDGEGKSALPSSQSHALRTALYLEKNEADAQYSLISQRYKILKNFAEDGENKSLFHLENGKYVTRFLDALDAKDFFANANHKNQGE
Procedure: as §1

[4] = target: B1; experiment: cryo-EM structure (summary of Example 1)
Procedure: as §1

Binder: ACUGAAACUGUAGUAGAACCAAUCGGGGUCGUCAAUA (ssRNA) [mature crRNA spacer 1]
- binding result [1]: binds

Binder: B1
- binding result [2]: binds

- binding result [3]: binds
- binding result [4]: binds
B2: Csx19 subunit of the Synechocystis sp. PCC 6803 Type III-Dv complex (other)
chain: MPAGGRLMKNLYHYHQYEITLESAVDSCKNHLQAAIGLLYSPQKCELVKLDNSGKLVDSYNRLKFNNLGVFEARFFNLNCELRWVNESNGNGTAVLLSESDITLTGFEKGLQEFITAIDQQYLLWGEPAKHPPNADGWQRLAEARIGKLDIPLDNPLKPKDRVFLTSEEYIAEVDDFGNCAVIDERLIKLEVK
notes: Untagged, co-expressed from pPF2434 in E. coli; one copy in the complex
